Laboratory results from patent US10196445.

Legend:
Experiment in all cases: Fc receptor binding, method not stated
[1] = biological target: CD16-V158 (FcγRIIIa) (human) (UniProt P08637)
[2] = biological target: CD32-H131 (FcγRIIa) (human) (UniProt P12318)
[3] = biological target: CD32-R131 (FcγRIIa) (human) (UniProt P12318)
CD64 (FcγRIa) (human) = CD64 (FcγRIa) (human) (UniProt P12314)
CD32B (FcγRIIb) (human) = CD32B (FcγRIIb) (human) (UniProt P31994)
Sequence of CD32B (FcγRIIb) (human) (P31994 43-217 limits assumed): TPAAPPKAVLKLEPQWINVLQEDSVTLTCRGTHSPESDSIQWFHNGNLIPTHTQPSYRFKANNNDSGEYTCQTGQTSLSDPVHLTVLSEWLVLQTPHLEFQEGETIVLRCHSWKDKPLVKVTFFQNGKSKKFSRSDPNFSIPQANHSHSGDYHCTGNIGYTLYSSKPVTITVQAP

Sequence of CD32-R131 (FcγRIIa) (human) (P12318 34-217 H167R limits assumed): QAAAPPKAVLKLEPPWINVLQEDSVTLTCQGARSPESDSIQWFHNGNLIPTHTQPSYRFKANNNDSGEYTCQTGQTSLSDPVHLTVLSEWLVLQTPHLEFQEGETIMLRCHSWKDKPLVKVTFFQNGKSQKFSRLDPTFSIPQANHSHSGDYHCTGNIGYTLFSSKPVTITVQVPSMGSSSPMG
Sequence of CD64 (FcγRIa) (human) (P12314 16-288 limits assumed): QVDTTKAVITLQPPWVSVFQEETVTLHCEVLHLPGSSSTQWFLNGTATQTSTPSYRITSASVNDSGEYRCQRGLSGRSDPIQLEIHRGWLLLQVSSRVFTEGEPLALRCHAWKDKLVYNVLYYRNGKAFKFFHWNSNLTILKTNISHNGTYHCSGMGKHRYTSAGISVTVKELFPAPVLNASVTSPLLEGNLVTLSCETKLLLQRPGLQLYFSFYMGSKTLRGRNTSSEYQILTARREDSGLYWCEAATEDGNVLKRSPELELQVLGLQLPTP
Sequence of CD16-V158 (FcγRIIIa) (human) (P08637 17-208 F176V limits assumed): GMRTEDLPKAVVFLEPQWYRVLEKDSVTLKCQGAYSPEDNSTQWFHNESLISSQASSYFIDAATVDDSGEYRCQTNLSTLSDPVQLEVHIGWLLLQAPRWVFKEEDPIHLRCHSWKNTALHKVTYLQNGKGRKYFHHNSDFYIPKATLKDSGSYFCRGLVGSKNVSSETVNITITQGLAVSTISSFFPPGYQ
Sequence of CD32-H131 (FcγRIIa) (human) (P12318 34-217 limits assumed): as the sequence (P12318 34-217 H167R limits assumed) above, with R134H counted along it

Kd [1]	Kd [2]	Kd [3]	Kd (CD64 (FcγRIa) (human))	Kd (CD32B (FcγRIIb) (human))	Substance
11 nM	560 nM	710 nM	0.1 nM	–	non-fucosylated IgG1f antibody (human IgG1, 214R/356E/358M allotype)
97 nM	530 nM	960 nM	0.2 nM	–	IgG1f antibody (human IgG1, 214R/356E/358M allotype)
–	–	100 nM	0.6 nM	890 nM	GASDALIE modified IgG1f antibody (human IgG1, 214R/356E/358M allotype; G236A, S239D, A330L and I332E)
